Format in all cases: biochemical, S. cerevisiae
Substrate in series [1]: Nc1nc(=O)[nH]cc1F
In words: Enzyme activity of yCD-His (substrate turnover). The following applies: other: enzyme yCD-His, 10 uL of 4.52 ug/mL stock; average ±SE; 23.0 °C. How it is done:
(§1) The S. cerevisiae yeast cytosine deaminase (yCD) enzyme was cloned and expressed. The resulting 474 bp gene was subcloned into pET-15b to facilitate purification of the protein via a fused histidine tag and transformed into competent BL21(DE3) cells for protein expression. An estimate of about 25-30 mg of pure yCD-His was collected from a 1-liter culture. Thrombin cleavage of the histidine tag on yCD-His was achieved by incubating the protein for 2 hours at 23° C. in thrombin cleavage buffer. Enzyme activity characteristics for yCD and yCD-His was investigated using both the prodrug 5FC and the enzyme's natural substrate, the DNA base cytosine. Five-FC turnover rates remained within 10^5 M^−1·s^−1 (Table 1) for both proteins (see E. Kievit et al. Cancer Res. 2000, 60:6649-6655). The diffusion controlled limit for extremely efficient enzymes and their substrates in solution is in the range 10^8-10^9 M^−1·s^−1, therefore it was concluded that yCD was a very efficient pretargeting enzyme for catalyzing 5FC to 5FU conversion, especially applicable to GDEPT.

Substrate in series [2]: Nc1cc[nH]c(=O)n1
Kind of series: Enzyme activity of yCD-His (substrate turnover). To be noted: other: enzyme yCD-His, 10 uL of 4.52 ug/mL stock; average ±SE; 23.0 °C. How it is done:
as §1

Substrate in series [3]: Nc1nc(=O)[nH]cc1F
Kind of series: Enzyme activity of yCD (His tag cleaved). To be noted: other: enzyme yCD, 10 uL of 4.23 ug/mL stock; average ±SE; 23.0 °C. How it is done: as §1

Substrate in series [4]: Nc1cc[nH]c(=O)n1
Kind of series: Enzyme activity of yCD (His tag cleaved). To be noted: other: enzyme yCD, 10 uL of 4.23 ug/mL stock; average ±SE; 23.0 °C. How it is done: as §1

B1: yCD-His (Saccharomyces cerevisiae S288C) (protein)
chain: MVTGGMASKWDQKGMDIAYEEAALGYKEGGVPIGGCLINNKDGSVLGRGHNMRFQKGSATLHGEISTLENCGRLEGKVYKDTTLYTTLSPCDMCTGAIIMYGIPRCVVGENVNFKSKGEKYLQTRGHEVVVVDDERCKKIMKQFIDERPQDWFEDIGE
notes: The resulting 474 bp gene was subcloned into pET-15b; made in house; host or cells: E. coli BL21(DE3)
The Km is the concentration of substrate that gives half-maximal velocity. B1: the values for the Km in series [1] and in series [2] were 1000 ± 240 µM and 4040 ± 1120 µM, respectively.

B2: yCD (Saccharomyces cerevisiae S288C) (protein)
chain: MVTGGMASKWDQKGMDIAYEEAALGYKEGGVPIGGCLINNKDGSVLGRGHNMRFQKGSATLHGEISTLENCGRLEGKVYKDTTLYTTLSPCDMCTGAIIMYGIPRCVVGENVNFKSKGEKYLQTRGHEVVVVDDERCKKIMKQFIDERPQDWFEDIGE
notes: The resulting 474 bp gene was subcloned into pET-15b; histidine tag (pET-15b) (N, cleaved yes); made in house; host or cells: E. coli BL21(DE3)
For B2, the Km in series [3] turned out to be 800 ± 180 µM; in series [4], 3750 ± 690 µM.
